Assay: soluble fraction after stress (log2 fold change); higher = more stays soluble; pooled small domains, quantitative proteomics
Details: stress: pH 4
Method in brief: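 Custom libraries of small protein domains were pooled and measured with high-throughput quantitative proteomics after pH 4 stress. The read-out is the fold change in the amount of each domain that stays soluble after the acid stress, taken as a measure of aggregation propensity. Fold changes are on a log2 scale, and higher values mean more of the domain stayed soluble.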

HMGLGDLEVVDSIGKIRRDGQQMILAFGRHKGRDVQEVYNEDPRYINWLLSPKGIEDENGRGKVRDYLGIN
soluble fraction (log2): -0.678

HMGLKQADFEELASRIFTVLEEKSMTPAEIVRKLNLEPDRISIVIQYLLDEGKLNIKDGFINNSA
soluble fraction (log2): -0.773

HMGLLGIYPNPVEGGSVRLLSDADLFGSRFELYDQSGKLVLNGFVTEGNFVSVKGISSGLYISVSYT
soluble fraction (log2): 0.00514

HMGLLGTDISAETMIGYFKKIDLGFDEETQEVIVPSWRQDLLRDADIAEEVARFYGYDNIPTTLPSGEST
soluble fraction (log2): -0.736

HMGLNLIGLKRSGFAPEEVKAMTRAYMYIFKSAEGNFESRLAKAHEKYKDDALIMEMVEFIDDALKG
soluble fraction (log2): -0.227

HMGLQEADKQDRIARMKELISFLNEAAKAYYQEGREIVSNLEYDKAYDALLSLEKESGVVLSGSPSQNVG
soluble fraction (log2): -0.659

HMGLRERLLNYIAYKGIDKATLERKSGLSNDAVNKMGDNTRVSTLDKISNAFPDINIAWLKTGVGEMILG
soluble fraction (log2): 0.146

HMGLSAALKARLREVINEMAKSGAQPKLREWALAEGIGNFAKPETPEAAEAVIAKAQELLAEA
soluble fraction (log2): 0.429

HMGLSASVIQMFADLGYTSEGRSTKEMITDYQIDHSIIKNSTEDGAGTYGPRTKASLSTVHAQYI
soluble fraction (log2): -0.535

HMGLSENALAMLKQQETVLIRLIDGRGNQGALASINLIVSRILNLDIVDRTPEDLLRVIASEGEQND
soluble fraction (log2): -1.54

HMGMIRFSKEEQMLMMLYSPGSRLGLIAELESMKLQLNSRERKLRNLAESVLKKLEQITDEEFMQFDF
soluble fraction (log2): -1.11

HMGMNSGQADFRGISLALSVDAEAEAQRLFTALADGGQVQMPLSKTFFSPAFGMVADRFGVGWMVVTN
soluble fraction (log2): -0.0936

HMGMSENIDKVAGGIPYKVEGNKAIINEPLDDATKERLMGKAKEHGYHAAPNQAGGITITLK
soluble fraction (log2): 0.0104

HMGMSKQKQSSLVRIIMQEISDANEGRMKMSQIIDAALIKGISDSTVRSVISRLSTTGAIYEPQTGTYEW
soluble fraction (log2): -0.374

HMGNEEEEAIREAEEAIERVLEYGEPQELNPQNGFIRRLQHQLAEKSHLSSESVGVEPYRRVRISK
soluble fraction (log2): -0.00812

HMGNFFDSAILALKNAIQENYGGNVSQAARSLGISVPTLHTWIKGDRKPSLEKLSPILDALNAKIVL
soluble fraction (log2): -0.276

HMGNFGDLLKILLDEKELSMGELSKKSGIDKSTISRIANNKQKPNINHLEKMAIHLNINLEELLKASGYEF
soluble fraction (log2): -0.857

HMGNFQNIFRKLRTSSNLTQNAIAEKLGISRSTIGMYETGAREPDFETLEKIADYFNVDTDFLLGRTNQTT
soluble fraction (log2): -0.0101

HMGNKDAQLVHLAKMNEIQIELMKTGRGYMVTDQNVYNLAKKMGENMGFKHPDLFLTDPAKV
soluble fraction (log2): -0.0687

HMGNKDIEILFSEIVEMRNRIIHGFRITSKQGEQILATKTRKKDGNIQFEITKEYLLDFIKKNEELSDMLY
soluble fraction (log2): -1.49

HMGNKWALLVVFILNENGSTRFNQLARQIPDISTKVLSNTLQILEADGLVKRTVFPEVPIRVEYELTATGK
soluble fraction (log2): -0.987

HMGNLIIFYDEGIGSGPLMKAVNDSGVSLVYEYKNLHGIAIRPSAKTNIQDAIAYFQKVNGVLSVEQ
soluble fraction (log2): -0.65

HMGNNKLVLSLAVALKNTPNFLKNYNYKISKDKKFIEILLSKQINEVSDIIINLKKNNINIVDLNIKKR
soluble fraction (log2): -0.0131

HMGNNTEITYSEFIRQAEAGNVQYVTVDGEKLLISATDGKSYYTINPRDDQMTDRLLNSGVEIRAEPQ
soluble fraction (log2): -0.482

HMGNRQEQVRIIRDLWRQLADAGQPVPAKHLTLDLDALDATQLTKLEDQAHGWLAKLSAQADLADAA
soluble fraction (log2): 0.22

HMGNTMIVILKHEARQEQIDRLKQFLLGMGLRIDESKGENSTILGLVGDTTRVDADLISSLDAVEAVRRV
soluble fraction (log2): -0.626

HMGNWENVEKETTEAIMAVKNGEAVWVDLAPANRMIRQMQHELVEQYGLLSQSYGKEPKRRIRIFQNP
soluble fraction (log2): 0.0117

Reference: the domain aggregation screens of Martell et al. (2025)
